The values that follow come from the supplement of paper PMC10724198.

± gives the standard deviation of the averaged measurements.

In the data set the test system is Saccharomyces cerevisiae. As to the kind of experiment: protein stability index of tFT-peptide fusion (C-terminal peptide) (PSI (0-1 scale)); higher = more stable (slower turnover). To be noted: temperature: 30 C. How it is done: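 MPS profiling in S. cerevisiae of the yeast C-terminome library: the last 12 aa of each annotated ORF are fused to the C-terminus of a sfGFP-mCherry timer, after a GGGS linker. Cells are FACS-sorted into 8 mCherry/sfGFP bins and deep-sequenced. PSI runs from 0 (unstable) to 1 (stable); wild type and das1Δ backgrounds, two technical replicates each.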

The mark [1] stands for this setting: genetic background: das1 deletion.

As for PQGFEIIELLNF [ROM1 C-terminal 12 aa], the protein stability index runs as follows: under setting [1], 0.717 ± 0.044; (genetic background: wild type) 0.718 ± 0.013.

On to PRSDDEDDEDSE [FAP7 C-terminal 12 aa], for which the protein stability index runs as follows: under setting [1], 0.683 ± 0.026; (genetic background: wild type) 0.671 ± 0.025.

As to “PSSDHAKSVMGE [YML101C-A C-terminal 12 aa]”, the protein stability index by setting is: under setting [1], 0.707 ± 0.018; (genetic background: wild type) 0.6804 ± 0.0044.

Consider PSTLIITTLLFK [YJR023C C-terminal 12 aa], for which the protein stability index stood at 0.618 ± 0.051 under setting [1] and 0.61 ± 0.017 (genetic background: wild type).

With PSYCSLRWSHRT [YLR169W C-terminal 12 aa], the protein stability index is, setting by setting: under setting [1], 0.7331 ± 0.006; (genetic background: wild type) 0.705 ± 0.029.

As for PTPKALTNEKTH [MGR1 C-terminal 12 aa], the protein stability index reads like this: under setting [1], 0.687 ± 0.017; (genetic background: wild type) 0.664 ± 0.015.

For PTYDNNRHYGND [YFL032W C-terminal 12 aa], the protein stability index is 0.671 ± 0.0083 under setting [1] and 0.702 ± 0.018 (genetic background: wild type).

PVHLEAIDLIDC [HSP150 C-terminal 12 aa]: the protein stability index came out at 0.7087 ± 0.0034 under setting [1] and 0.714 ± 0.024 (genetic background: wild type).

On to PVRMYALKPMPN [TAE1 C-terminal 12 aa], for which the protein stability index is, setting by setting: under setting [1], 0.6931 ± 0.0035; (genetic background: wild type) 0.665 ± 0.04.

PWFAPIREQIEK [CKA1 C-terminal 12 aa] showed a protein stability index under setting [1] of 0.722 ± 0.011 and a protein stability index (genetic background: wild type) of 0.7489 ± 0.0034.

For QAKEVFDKMQKE [FMP23 C-terminal 12 aa], the protein stability index under setting [1] worked out at 0.7133 ± 0.0026 and the protein stability index (genetic background: wild type) amounted to 0.686 ± 0.065.

Take QARKSKSVSFYA [RPT5 C-terminal 12 aa]: the protein stability index stood at 0.693 ± 0.016 under setting [1] and 0.692 ± 0.027 (genetic background: wild type).

Consider QDMMSGFLGGSK [GET4 C-terminal 12 aa], for which the protein stability index reads like this: under setting [1], 0.69072 ± 1.9e-05; (genetic background: wild type) 0.667 ± 0.0077.

Regarding QDNSEVVDLTSD [NFI1 C-terminal 12 aa], the protein stability index reads like this: under setting [1], 0.694 ± 0.012; (genetic background: wild type) 0.6728 ± 0.006.

As for QGMLQSFLDREL [YOL057W C-terminal 12 aa], the protein stability index is, setting by setting: under setting [1], 0.721 ± 0.023; (genetic background: wild type) 0.666 ± 0.042.

On to QHSRGSPNNSNN [YKU80 C-terminal 12 aa], for which the protein stability index reads like this: under setting [1], 0.701 ± 0.0071; (genetic background: wild type) 0.708 ± 0.039.

Take QIAGRYVVDTSK [ADH2 C-terminal 12 aa]: the protein stability index is 0.6869 ± 0.0057 under setting [1] and 0.6522 ± 0.0027 (genetic background: wild type).

Consider QINDLEIYRKRL [SNT309 C-terminal 12 aa], for which the protein stability index was determined as 0.6847 ± 0.006 under setting [1] and 0.68 ± 0.029 (genetic background: wild type).

As for QKLGIIGKNDLK [PSD1 C-terminal 12 aa], the protein stability index by setting is: under setting [1], 0.685 ± 0.029; (genetic background: wild type) 0.709 ± 0.016.

Turning to QKYQVYKNFETL [UTR4 C-terminal 12 aa], the protein stability index worked out at 0.7 ± 0.015 under setting [1] and 0.688 ± 0.0077 (genetic background: wild type).

With QLHLVLTLRGGN [RUB1 C-terminal 12 aa], the protein stability index under setting [1] was determined as 0.683 ± 0.011 and the protein stability index (genetic background: wild type) worked out at 0.74 ± 0.053.

Regarding QLSRNEESLMKK [COS5 C-terminal 12 aa], the protein stability index is 0.7 ± 0.015 under setting [1] and 0.752 ± 0.059 (genetic background: wild type).

In turn, QMTRNVNNNDFS [YAH1 C-terminal 12 aa] gave a protein stability index under setting [1] of 0.711 ± 0.028 and a protein stability index (genetic background: wild type) of 0.664 ± 0.014.

For the sequence QMVRDEGFEKNP [GPM3 C-terminal 12 aa], the protein stability index under setting [1] came out at 0.68 ± 0.038 and the protein stability index (genetic background: wild type) came out at 0.644 ± 0.036.

As to QPDDKTKGILDR [ERV41 C-terminal 12 aa], the protein stability index stood at 0.7292 ± 0.0051 under setting [1] and 0.682 ± 0.03 (genetic background: wild type).

QQEQDKKKKSNH [PRE6 C-terminal 12 aa] gave a protein stability index under setting [1] of 0.709 ± 0.013 and a protein stability index (genetic background: wild type) of 0.49 ± 0.013.

Regarding QRDFLLFYNAIM [CDC36 C-terminal 12 aa], the protein stability index reads like this: under setting [1], 0.687 ± 0.012; (genetic background: wild type) 0.533 ± 0.075.

For QSFETVFAGQKP [MET17 C-terminal 12 aa], the protein stability index under setting [1] is 0.7008 ± 0.0036 and the protein stability index (genetic background: wild type) was 0.702 ± 0.027.

Regarding QTDNTSATNQLL [YSP2 C-terminal 12 aa], the protein stability index reads like this: under setting [1], 0.7 ± 0.0084; (genetic background: wild type) 0.701 ± 0.029.

Consider QTINTKPLYIKN [YGR290W C-terminal 12 aa], for which the protein stability index is, setting by setting: under setting [1], 0.686 ± 0.02; (genetic background: wild type) 0.665 ± 0.075.

Take QVGKSQAQAVTL [ANY1 C-terminal 12 aa]: the protein stability index reads like this: under setting [1], 0.674 ± 0.0092; (genetic background: wild type) 0.7167 ± 0.0057.

On to QVPEEDFPVVNY [DNL4 C-terminal 12 aa], for which the protein stability index amounted to 0.697 ± 0.009 under setting [1] and 0.718 ± 0.034 (genetic background: wild type).

In turn, RAEVAALAAENK [PFK1 C-terminal 12 aa] registered a protein stability index under setting [1] of 0.6903 ± 0.0045 and a protein stability index (genetic background: wild type) of 0.6608 ± 0.0054.

In the case of RAHITKQKKKGY [SDA1 C-terminal 12 aa], the protein stability index reads like this: under setting [1], 0.7317 ± 0.0043; (genetic background: wild type) 0.6636 ± 0.0011.

For RARLIRKKKTIN [YER085C C-terminal 12 aa], the protein stability index turned out to be 0.751 ± 0.022 under setting [1] and 0.202 ± 0.022 (genetic background: wild type).

With RAVTPTGKKGRN [YOR296W C-terminal 12 aa], the protein stability index by setting is: under setting [1], 0.675 ± 0.035; (genetic background: wild type) 0.6578 ± 0.0052.

“RCNVYIIRCIHH [YOL164W-A C-terminal 12 aa]” returned a protein stability index under setting [1] of 0.5183 ± 0.00055 and a protein stability index (genetic background: wild type) of 0.51 ± 0.037.

In the case of RCWVQAVFDVPQ [ABP140 C-terminal 12 aa], the protein stability index reads like this: under setting [1], 0.725 ± 0.011; (genetic background: wild type) 0.691 ± 0.046.

As to RDHDLKDCGDIF [OSH2 C-terminal 12 aa], the protein stability index runs as follows: under setting [1], 0.7104 ± 0.0011; (genetic background: wild type) 0.698 ± 0.039.

Regarding RELFGVGTPQKL [TEA1 C-terminal 12 aa], the protein stability index by setting is: under setting [1], 0.7173 ± 0.0037; (genetic background: wild type) 0.728 ± 0.023.

For RELTDLFGYKLG [SLM4 C-terminal 12 aa], the protein stability index reads like this: under setting [1], 0.708 ± 0.015; (genetic background: wild type) 0.677 ± 0.02.

Take RESINEAKLRHT [BDH2 C-terminal 12 aa]: the protein stability index was determined as 0.676 ± 0.02 under setting [1] and 0.63 ± 0.011 (genetic background: wild type).

With REWASNTVKKEK [EMC5 C-terminal 12 aa], the protein stability index amounted to 0.698 ± 0.013 under setting [1] and 0.692 ± 0.024 (genetic background: wild type).

Take RFRVVLGDSDDE [PSH1 C-terminal 12 aa]: the protein stability index came out at 0.672 ± 0.043 under setting [1] and 0.721 ± 0.075 (genetic background: wild type).

As to RGRGALVDSDDE [ELF1 C-terminal 12 aa], the protein stability index reads like this: under setting [1], 0.713 ± 0.026; (genetic background: wild type) 0.674 ± 0.046.

For the sequence RGSCDNWKKRQN [YBL044W C-terminal 12 aa], the protein stability index by setting is: under setting [1], 0.726 ± 0.021; (genetic background: wild type) 0.482 ± 0.0072.

Regarding RIPKELTGTVRF [GAT4 C-terminal 12 aa], the protein stability index came to 0.705 ± 0.018 under setting [1] and 0.672 ± 0.014 (genetic background: wild type).

In the case of RITRLSSMTYTY [YPS5 C-terminal 12 aa], the protein stability index amounted to 0.711 ± 0.038 under setting [1] and 0.69 ± 0.033 (genetic background: wild type).

In the case of RKQAHELRPKSE [SPO7 C-terminal 12 aa], the protein stability index by setting is: under setting [1], 0.77 ± 0.024; (genetic background: wild type) 0.79 ± 0.019.

Take RKSHERPDDVSV [SUR7 C-terminal 12 aa]: the protein stability index under setting [1] was 0.692 ± 0.018 and the protein stability index (genetic background: wild type) was found to be 0.69 ± 0.028.
